Results published in patent US20180155451A1 (published 2018).

Tests used:
[1] = target: T1, FcγRIIb extracellular domain with C-terminal His tag (human, UniProt P31994 43-217); assay: SPR (Biacore), antibody captured on antigen-peptide chip, FcgRIIb as analyte; binding relative to GpH7-B3/GpL16-k0 (HoCon Ab) = 100
T1 construct: extracellular domain; Expressed in FreeStyle293 cells; used as analyte in Biacore; also called FcgRIIb; 2b; not shown: C-terminal His tag
T1 sequence (looked up): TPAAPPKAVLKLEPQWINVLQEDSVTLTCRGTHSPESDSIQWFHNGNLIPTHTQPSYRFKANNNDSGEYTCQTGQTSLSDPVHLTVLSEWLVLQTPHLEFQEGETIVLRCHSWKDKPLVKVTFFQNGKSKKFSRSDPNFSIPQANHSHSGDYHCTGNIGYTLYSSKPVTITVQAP

[2] = target: T1, FcγRIIb extracellular domain with …; assay: SPR (Biacore), antibody captured on antigen-peptide chip, FcgRIIb as analyte; binding relative to GpH7-A5/GpH7-B3/GpL16-k0 (HeCon Ab) = 100

Row | Binder | Ho/Con_2b [1] | He/Con_2b [2]
1 | GpH7-B3 variant S267_09D/GpL16-k0 (Ho Ab) (antibody, human IgG1, kappa, Substitution in both H chains; position in EU numbering; also called S267D homodimerized antibody) heavy: not shown light: DIVMTQSPLSLPVTPGEPASISCQASESLVHSNRNTYLHWYLQKPGQSPQLLIYKVSNRFSGVPDRFSGSGSGTDFTLKISRVEAEDVGVYYCSQNTHVPPTFGQGTKVEIERTVAAPSVFIFPPSDEQLKSGTASVVCLLNNFYPREAKVQWKVDNALQSGNSQESVTEQDSKDSTYSLSSTLTLSKADYEKHKVYACEVTHQGLSSPVTKSFNRGEC | 327 % of control | 
2 | GpH7-A5/GpH7-B3 variant L328_03V/GpL16-k0 (He Ab) (antibody, human IgG1, kappa, Substitution in one H chain only; position in EU numbering; also called L328V heterodimerized antibody) heavy 1: not shown heavy 2: not shown light: DIVMTQSPLSLPVTPGEPASISCQASESLVHSNRNTYLHWYLQKPGQSPQLLIYKVSNRFSGVPDRFSGSGSGTDFTLKISRVEAEDVGVYYCSQNTHVPPTFGQGTKVEIERTVAAPSVFIFPPSDEQLKSGTASVVCLLNNFYPREAKVQWKVDNALQSGNSQESVTEQDSKDSTYSLSSTLTLSKADYEKHKVYACEVTHQGLSSPVTKSFNRGEC |  | 126 % of control
3 | GpH7-B3 variant S298_08L/GpL16-k0 (Ho Ab) (antibody, human IgG1, kappa, Substitution in both H chains; position in EU numbering; also called S298L homodimerized antibody) heavy: not shown light: DIVMTQSPLSLPVTPGEPASISCQASESLVHSNRNTYLHWYLQKPGQSPQLLIYKVSNRFSGVPDRFSGSGSGTDFTLKISRVEAEDVGVYYCSQNTHVPPTFGQGTKVEIERTVAAPSVFIFPPSDEQLKSGTASVVCLLNNFYPREAKVQWKVDNALQSGNSQESVTEQDSKDSTYSLSSTLTLSKADYEKHKVYACEVTHQGLSSPVTKSFNRGEC | 115 % of control | 
4 | GpH7-A5/GpH7-B3 variant L328_06M/GpL16-k0 (He Ab) (antibody, human IgG1, kappa, Substitution in one H chain only; position in EU numbering; also called L328M heterodimerized antibody) heavy 1: not shown heavy 2: not shown light: DIVMTQSPLSLPVTPGEPASISCQASESLVHSNRNTYLHWYLQKPGQSPQLLIYKVSNRFSGVPDRFSGSGSGTDFTLKISRVEAEDVGVYYCSQNTHVPPTFGQGTKVEIERTVAAPSVFIFPPSDEQLKSGTASVVCLLNNFYPREAKVQWKVDNALQSGNSQESVTEQDSKDSTYSLSSTLTLSKADYEKHKVYACEVTHQGLSSPVTKSFNRGEC |  | 142 % of control
5 | GpH7-B3 variant S267_14T/GpL16-k0 (Ho Ab) (antibody, human IgG1, kappa, Substitution in both H chains; position in EU numbering; also called S267T homodimerized antibody) heavy: not shown light: DIVMTQSPLSLPVTPGEPASISCQASESLVHSNRNTYLHWYLQKPGQSPQLLIYKVSNRFSGVPDRFSGSGSGTDFTLKISRVEAEDVGVYYCSQNTHVPPTFGQGTKVEIERTVAAPSVFIFPPSDEQLKSGTASVVCLLNNFYPREAKVQWKVDNALQSGNSQESVTEQDSKDSTYSLSSTLTLSKADYEKHKVYACEVTHQGLSSPVTKSFNRGEC | 106 % of control | 
6 | GpH7-A5/GpH7-B3 variant K334_16H/GpL16-k0 (He Ab) (antibody, human IgG1, kappa, Substitution in one H chain only; position in EU numbering; also called K334H heterodimerized antibody) heavy 1: not shown heavy 2: not shown light: DIVMTQSPLSLPVTPGEPASISCQASESLVHSNRNTYLHWYLQKPGQSPQLLIYKVSNRFSGVPDRFSGSGSGTDFTLKISRVEAEDVGVYYCSQNTHVPPTFGQGTKVEIERTVAAPSVFIFPPSDEQLKSGTASVVCLLNNFYPREAKVQWKVDNALQSGNSQESVTEQDSKDSTYSLSSTLTLSKADYEKHKVYACEVTHQGLSSPVTKSFNRGEC |  | 113 % of control
7 | GpH7-A5/GpH7-B3 variant K334_15Y/GpL16-k0 (He Ab) (antibody, human IgG1, kappa, Substitution in one H chain only; position in EU numbering; also called K334Y heterodimerized antibody) heavy 1: not shown heavy 2: not shown light: DIVMTQSPLSLPVTPGEPASISCQASESLVHSNRNTYLHWYLQKPGQSPQLLIYKVSNRFSGVPDRFSGSGSGTDFTLKISRVEAEDVGVYYCSQNTHVPPTFGQGTKVEIERTVAAPSVFIFPPSDEQLKSGTASVVCLLNNFYPREAKVQWKVDNALQSGNSQESVTEQDSKDSTYSLSSTLTLSKADYEKHKVYACEVTHQGLSSPVTKSFNRGEC |  | 109 % of control
8 | GpH7-B3 variant S267_10E/GpL16-k0 (Ho Ab) (antibody, human IgG1, kappa, Substitution in both H chains; position in EU numbering; also called S267E homodimerized antibody) heavy: not shown light: DIVMTQSPLSLPVTPGEPASISCQASESLVHSNRNTYLHWYLQKPGQSPQLLIYKVSNRFSGVPDRFSGSGSGTDFTLKISRVEAEDVGVYYCSQNTHVPPTFGQGTKVEIERTVAAPSVFIFPPSDEQLKSGTASVVCLLNNFYPREAKVQWKVDNALQSGNSQESVTEQDSKDSTYSLSSTLTLSKADYEKHKVYACEVTHQGLSSPVTKSFNRGEC | 396 % of control | 
9 | GpH7-B3 variant S337_10E/GpL16-k0 (Ho Ab) (antibody, human IgG1, kappa, Substitution in both H chains; position in EU numbering; also called S337E homodimerized antibody) heavy: not shown light: DIVMTQSPLSLPVTPGEPASISCQASESLVHSNRNTYLHWYLQKPGQSPQLLIYKVSNRFSGVPDRFSGSGSGTDFTLKISRVEAEDVGVYYCSQNTHVPPTFGQGTKVEIERTVAAPSVFIFPPSDEQLKSGTASVVCLLNNFYPREAKVQWKVDNALQSGNSQESVTEQDSKDSTYSLSSTLTLSKADYEKHKVYACEVTHQGLSSPVTKSFNRGEC | 109 % of control | 
10 | GpH7-B3 variant S337_14T/GpL16-k0 (Ho Ab) (antibody, human IgG1, kappa, Substitution in both H chains; position in EU numbering; also called S337T homodimerized antibody) heavy: not shown light: DIVMTQSPLSLPVTPGEPASISCQASESLVHSNRNTYLHWYLQKPGQSPQLLIYKVSNRFSGVPDRFSGSGSGTDFTLKISRVEAEDVGVYYCSQNTHVPPTFGQGTKVEIERTVAAPSVFIFPPSDEQLKSGTASVVCLLNNFYPREAKVQWKVDNALQSGNSQESVTEQDSKDSTYSLSSTLTLSKADYEKHKVYACEVTHQGLSSPVTKSFNRGEC | 110 % of control | 
11 | GpH7-B3 variant T335_08L/GpL16-k0 (Ho Ab) (antibody, human IgG1, kappa, Substitution in both H chains; position in EU numbering; also called T335L homodimerized antibody) heavy: not shown light: DIVMTQSPLSLPVTPGEPASISCQASESLVHSNRNTYLHWYLQKPGQSPQLLIYKVSNRFSGVPDRFSGSGSGTDFTLKISRVEAEDVGVYYCSQNTHVPPTFGQGTKVEIERTVAAPSVFIFPPSDEQLKSGTASVVCLLNNFYPREAKVQWKVDNALQSGNSQESVTEQDSKDSTYSLSSTLTLSKADYEKHKVYACEVTHQGLSSPVTKSFNRGEC | 106 % of control | 
12 | GpH7-A5/GpH7-B3 variant L328_07I/GpL16-k0 (He Ab) (antibody, human IgG1, kappa, Substitution in one H chain only; position in EU numbering; also called L328I heterodimerized antibody) heavy 1: not shown heavy 2: not shown light: DIVMTQSPLSLPVTPGEPASISCQASESLVHSNRNTYLHWYLQKPGQSPQLLIYKVSNRFSGVPDRFSGSGSGTDFTLKISRVEAEDVGVYYCSQNTHVPPTFGQGTKVEIERTVAAPSVFIFPPSDEQLKSGTASVVCLLNNFYPREAKVQWKVDNALQSGNSQESVTEQDSKDSTYSLSSTLTLSKADYEKHKVYACEVTHQGLSSPVTKSFNRGEC |  | 160 % of control
13 | GpH7-B3 variant Y300_19Q/GpL16-k0 (Ho Ab) (antibody, human IgG1, kappa, Substitution in both H chains; position in EU numbering; also called Y300Q homodimerized antibody) heavy: not shown light: DIVMTQSPLSLPVTPGEPASISCQASESLVHSNRNTYLHWYLQKPGQSPQLLIYKVSNRFSGVPDRFSGSGSGTDFTLKISRVEAEDVGVYYCSQNTHVPPTFGQGTKVEIERTVAAPSVFIFPPSDEQLKSGTASVVCLLNNFYPREAKVQWKVDNALQSGNSQESVTEQDSKDSTYSLSSTLTLSKADYEKHKVYACEVTHQGLSSPVTKSFNRGEC | 124 % of control | 
14 | GpH7-B3 variant T335_09D/GpL16-k0 (Ho Ab) (antibody, human IgG1, kappa, Substitution in both H chains; position in EU numbering; also called T335D homodimerized antibody) heavy: not shown light: DIVMTQSPLSLPVTPGEPASISCQASESLVHSNRNTYLHWYLQKPGQSPQLLIYKVSNRFSGVPDRFSGSGSGTDFTLKISRVEAEDVGVYYCSQNTHVPPTFGQGTKVEIERTVAAPSVFIFPPSDEQLKSGTASVVCLLNNFYPREAKVQWKVDNALQSGNSQESVTEQDSKDSTYSLSSTLTLSKADYEKHKVYACEVTHQGLSSPVTKSFNRGEC | 116 % of control | 
15 | GpH7-B3 variant T335_04F/GpL16-k0 (Ho Ab) (antibody, human IgG1, kappa, Substitution in both H chains; position in EU numbering; also called T335F homodimerized antibody) heavy: not shown light: DIVMTQSPLSLPVTPGEPASISCQASESLVHSNRNTYLHWYLQKPGQSPQLLIYKVSNRFSGVPDRFSGSGSGTDFTLKISRVEAEDVGVYYCSQNTHVPPTFGQGTKVEIERTVAAPSVFIFPPSDEQLKSGTASVVCLLNNFYPREAKVQWKVDNALQSGNSQESVTEQDSKDSTYSLSSTLTLSKADYEKHKVYACEVTHQGLSSPVTKSFNRGEC | 107 % of control | 
16 | GpH7-A5/GpH7-B3 variant K334_19Q/GpL16-k0 (He Ab) (antibody, human IgG1, kappa, Substitution in one H chain only; position in EU numbering; also called K334Q heterodimerized antibody) heavy 1: not shown heavy 2: not shown light: DIVMTQSPLSLPVTPGEPASISCQASESLVHSNRNTYLHWYLQKPGQSPQLLIYKVSNRFSGVPDRFSGSGSGTDFTLKISRVEAEDVGVYYCSQNTHVPPTFGQGTKVEIERTVAAPSVFIFPPSDEQLKSGTASVVCLLNNFYPREAKVQWKVDNALQSGNSQESVTEQDSKDSTYSLSSTLTLSKADYEKHKVYACEVTHQGLSSPVTKSFNRGEC |  | 109 % of control
17 | GpH7-A5/GpH7-B3 variant K334_18N/GpL16-k0 (He Ab) (antibody, human IgG1, kappa, Substitution in one H chain only; position in EU numbering; also called K334N heterodimerized antibody) heavy 1: not shown heavy 2: not shown light: DIVMTQSPLSLPVTPGEPASISCQASESLVHSNRNTYLHWYLQKPGQSPQLLIYKVSNRFSGVPDRFSGSGSGTDFTLKISRVEAEDVGVYYCSQNTHVPPTFGQGTKVEIERTVAAPSVFIFPPSDEQLKSGTASVVCLLNNFYPREAKVQWKVDNALQSGNSQESVTEQDSKDSTYSLSSTLTLSKADYEKHKVYACEVTHQGLSSPVTKSFNRGEC |  | 115 % of control
18 | GpH7-A5/GpH7-B3 variant L328_14T/GpL16-k0 (He Ab) (antibody, human IgG1, kappa, Substitution in one H chain only; position in EU numbering; also called L328T heterodimerized antibody) heavy 1: not shown heavy 2: not shown light: DIVMTQSPLSLPVTPGEPASISCQASESLVHSNRNTYLHWYLQKPGQSPQLLIYKVSNRFSGVPDRFSGSGSGTDFTLKISRVEAEDVGVYYCSQNTHVPPTFGQGTKVEIERTVAAPSVFIFPPSDEQLKSGTASVVCLLNNFYPREAKVQWKVDNALQSGNSQESVTEQDSKDSTYSLSSTLTLSKADYEKHKVYACEVTHQGLSSPVTKSFNRGEC |  | 141 % of control
19 | GpH7-B3 variant S337_09D/GpL16-k0 (Ho Ab) (antibody, human IgG1, kappa, Substitution in both H chains; position in EU numbering; also called S337D homodimerized antibody) heavy: not shown light: DIVMTQSPLSLPVTPGEPASISCQASESLVHSNRNTYLHWYLQKPGQSPQLLIYKVSNRFSGVPDRFSGSGSGTDFTLKISRVEAEDVGVYYCSQNTHVPPTFGQGTKVEIERTVAAPSVFIFPPSDEQLKSGTASVVCLLNNFYPREAKVQWKVDNALQSGNSQESVTEQDSKDSTYSLSSTLTLSKADYEKHKVYACEVTHQGLSSPVTKSFNRGEC | 116 % of control | 
20 | GpH7-A5/GpH7-B3 variant L328_04F/GpL16-k0 (He Ab) (antibody, human IgG1, kappa, Substitution in one H chain only; position in EU numbering; also called L328F heterodimerized antibody) heavy 1: not shown heavy 2: not shown light: DIVMTQSPLSLPVTPGEPASISCQASESLVHSNRNTYLHWYLQKPGQSPQLLIYKVSNRFSGVPDRFSGSGSGTDFTLKISRVEAEDVGVYYCSQNTHVPPTFGQGTKVEIERTVAAPSVFIFPPSDEQLKSGTASVVCLLNNFYPREAKVQWKVDNALQSGNSQESVTEQDSKDSTYSLSSTLTLSKADYEKHKVYACEVTHQGLSSPVTKSFNRGEC |  | 219 % of control
